Reference: the Human Domainome abundance scans (Beltran et al. 2025)
± gives the uncertainty stated by the source.

B1: Ubiquitin-protein ligase residues 30 to 86; numbered along this chain, Q05086 (parent)
chain: KHLIERYYHQLTEGCGNEACTNEFCASCPTFLRMDNNAAAIKALELYKINAKLCDPH

Variants of: B1
Test: abundance fitness (aPCA) (normalised: wild type 0, dead -1); higher = more abundant; growth selection in yeast, the domain comes from the species named
Conditions: Homo sapiens

Abundance fitness, by site and new letter:
P29: D -0.252 ± 0.2; Y -0.191 ± 0.22; I -0.122 ± 0.15; K -0.014 ± 0.14; N -0.304 ± 0.3; R -0.061 ± 0.089; E 0.03 ± 0.17; S -0.09 ± 0.1; A -0.118 ± 0.11; G -0.088 ± 0.11; H -0.036 ± 0.29; L -0.149 ± 0.11; W -0.557 ± 0.2; V -0.156 ± 0.09; Q -0.103 ± 0.17; F -0.195 ± 0.16
A26: C -0.053 ± 0.08; D -0.67 ± 0.09; Q -0.156 ± 0.081; K 0.034 ± 0.093; R -0.096 ± 0.05; T -0.328 ± 0.075; W -0.104 ± 0.079; L -0.143 ± 0.055; H -0.163 ± 0.13; M -0.111 ± 0.067; V -0.156 ± 0.052; P -0.876 ± 0.12; F 0.077 ± 0.12; Y -0.076 ± 0.1; G -0.146 ± 0.05; I -0.097 ± 0.094; E -0.332 ± 0.083; S -0.047 ± 0.063
C25: E -0.72 ± 0.21; R -1.05 ± 0.12; V -0.891 ± 0.11; F -0.791 ± 0.17; H -0.887 ± 0.21; G -0.973 ± 0.1; Y -0.816 ± 0.095; I -0.613 ± 0.28; L -1.08 ± 0.13; M -0.841 ± 0.15; P -1.18 ± 0.23; W -1.05 ± 0.23; S -0.741 ± 0.14; K -1.01 ± 0.21; A -1.03 ± 0.18; N -0.882 ± 0.32
G14: E -0.919 ± 0.1; F -0.865 ± 0.13; V -0.973 ± 0.072; T -0.848 ± 0.08; L -0.967 ± 0.07; Y -1.02 ± 0.14; W -0.942 ± 0.1; Q -1.09 ± 0.12; N -0.849 ± 0.15; H -0.957 ± 0.16; I -1.02 ± 0.17; D -0.945 ± 0.11; A -0.866 ± 0.072; R -0.966 ± 0.072; S -0.946 ± 0.075
F24: I -0.024 ± 0.083; G -0.057 ± 0.048; R -0.095 ± 0.049; V -0.03 ± 0.052; D -0.026 ± 0.08; M -0.031 ± 0.071; Q 0.016 ± 0.08; N -0.017 ± 0.095; S -0.033 ± 0.056; Y -0.026 ± 0.086; L -0.016 ± 0.055; W 0.07 ± 0.062; A -0.041 ± 0.056; P -0.734 ± 0.088; T -0.018 ± 0.065; H 0.028 ± 0.097; K -0.041 ± 0.073; E -0.057 ± 0.068
L32: I -0.036 ± 0.14; G -0.034 ± 0.061; H -0.093 ± 0.12; C -0.082 ± 0.11; Q 0.043 ± 0.13; S -0.053 ± 0.072; P 0.148 ± 0.14; F -0.239 ± 0.13; R -0.033 ± 0.071; D -0.049 ± 0.11; N 0.202 ± 0.14; K 0.081 ± 0.13; A 0.006 ± 0.081
C20: K -1.13 ± 0.26; V -1.02 ± 0.083; W -0.98 ± 0.088; Y -0.717 ± 0.36; I -0.941 ± 0.22; E -1.02 ± 0.25; G -0.86 ± 0.061; N -1.1 ± 0.31; P -1.03 ± 0.12; S -0.821 ± 0.078; D -0.883 ± 0.45; L -1.03 ± 0.091; M -1.08 ± 0.12; Q -0.893 ± 0.37; F -0.889 ± 0.16
E18: V -0.023 ± 0.058; I -0.075 ± 0.15; S 0.001 ± 0.064; M 0.006 ± 0.09; R -0.066 ± 0.056; N 0.061 ± 0.13; D -0.004 ± 0.087; G -0.054 ± 0.053; H 0.014 ± 0.097; L -0.056 ± 0.06; F -0.181 ± 0.13; W -0.151 ± 0.075; K -0.089 ± 0.084; C -0.044 ± 0.089; Y -0.071 ± 0.11; Q 0.076 ± 0.075; T -0.003 ± 0.077; A 0 ± 0.063
S27: R -0.186 ± 0.05; E -0.374 ± 0.069; K -0.06 ± 0.081; Q -0.179 ± 0.091; N -0.06 ± 0.1; P -0.711 ± 0.098; H -0.196 ± 0.093; I -0.763 ± 0.15; C -0.061 ± 0.072; L -0.523 ± 0.058; W -0.772 ± 0.069; M -0.112 ± 0.072; T -0.113 ± 0.072; F -0.349 ± 0.082; D -0.131 ± 0.082; A -0.072 ± 0.056; Y -0.441 ± 0.1; G -0.09 ± 0.048; V -0.594 ± 0.056
T30: N -0.052 ± 0.13; R 0.044 ± 0.074; L -0.083 ± 0.075; Q -0.048 ± 0.11; D -0.071 ± 0.12; I -0.042 ± 0.059; W -0.006 ± 0.12; V -0.083 ± 0.066; M -0.153 ± 0.093; A 0.018 ± 0.074; C -0.022 ± 0.11; P -0.097 ± 0.11; G 0.025 ± 0.063; K 0.012 ± 0.096; Y -0.216 ± 0.13; E -0.055 ± 0.089; S 0.016 ± 0.081
F31: Q -0.098 ± 0.12; V -0.038 ± 0.068; P -0.185 ± 0.11; G -0.025 ± 0.059; Y -0.06 ± 0.11; C -0.043 ± 0.087; R -0.14 ± 0.07; E -0.124 ± 0.083; W -0.188 ± 0.11; M 0.057 ± 0.11; N 0.027 ± 0.13; I -0.169 ± 0.17; T -0.023 ± 0.11; H -0.013 ± 0.16
G16: K -0.064 ± 0.082; S -0.062 ± 0.057; I -0.33 ± 0.14; V -0.2 ± 0.049; Y -0.117 ± 0.1; R -0.127 ± 0.049; W -0.191 ± 0.063; Q -0.059 ± 0.078; L -0.11 ± 0.054; P -0.132 ± 0.071; A -0.049 ± 0.055; D -0.041 ± 0.073; N -0.061 ± 0.12; M -0.179 ± 0.065; E -0.049 ± 0.06; C -0.049 ± 0.071; F -0.221 ± 0.12
E13: R -0.02 ± 0.056; Y -0.01 ± 0.099; W -0.163 ± 0.073; F -0.047 ± 0.099; K 0.041 ± 0.075; L 0.006 ± 0.053; T -0.009 ± 0.061; V -0.071 ± 0.053; Q 0.06 ± 0.082; M -0.093 ± 0.075; A 0.029 ± 0.058; H -0.006 ± 0.1; S 0.008 ± 0.056; I -0.048 ± 0.086; P -1.02 ± 0.1; D 0.055 ± 0.087
A19: K -0.001 ± 0.078; E 0.004 ± 0.062; P -0.084 ± 0.062; H -0.006 ± 0.1; L -0.045 ± 0.053; M 0.011 ± 0.067; V -0.013 ± 0.051; W -0.073 ± 0.063; R -0.022 ± 0.051; N -0.015 ± 0.087; S -0.008 ± 0.055; I -0.102 ± 0.11; Y -0.1 ± 0.11; G -0.015 ± 0.05; C -0.12 ± 0.085; D 0.023 ± 0.078; F -0.031 ± 0.093
E23: A -0.077 ± 0.058; C -0.082 ± 0.093; H -0.09 ± 0.1; G -0.045 ± 0.048; M -0.021 ± 0.079; L -0.106 ± 0.065; S -0.001 ± 0.064; Q -0.019 ± 0.087; T -0.022 ± 0.081; D -0.062 ± 0.07; P -0.105 ± 0.087; R -0.045 ± 0.055; F -0.084 ± 0.11; K -0.054 ± 0.078; Y -0.102 ± 0.097; W -0.134 ± 0.072
C15: E -0.943 ± 0.18; M -1.04 ± 0.12; Q -0.85 ± 0.098; G -0.973 ± 0.091; A -0.789 ± 0.062; D -0.796 ± 0.1; H -0.576 ± 0.1; N -0.981 ± 0.12; S -1.07 ± 0.094; P -1.09 ± 0.14; Y -0.944 ± 0.1; F -0.885 ± 0.12; L -1 ± 0.084; R -0.912 ± 0.072; T -0.833 ± 0.093; W -0.969 ± 0.099
N17: L -0.071 ± 0.044; V -0.05 ± 0.051; S -0.034 ± 0.044; T 0.014 ± 0.047; H -0.008 ± 0.046; Y -0.042 ± 0.05; F -0.091 ± 0.05; P -0.091 ± 0.048; A -0.001 ± 0.051; R -0.042 ± 0.047; G -0.008 ± 0.058; Q -0.087 ± 0.067; C -0.037 ± 0.055; I -0.067 ± 0.046; W 0.005 ± 0.078; D -0.04 ± 0.059; E -0.029 ± 0.092; M -0.096 ± 0.065; K 0.027 ± 0.071
T21: M -0.129 ± 0.076; A 0.029 ± 0.054; H 0.018 ± 0.093; D -0.011 ± 0.08; V -0.005 ± 0.058; Q -0.046 ± 0.087; F -0.008 ± 0.12; P -0.076 ± 0.077; C -0.015 ± 0.08; L -0.086 ± 0.062; N 0.067 ± 0.093; G -0.022 ± 0.049; R -0.038 ± 0.051; Y -0.458 ± 0.14; W -0.105 ± 0.07; I -0.033 ± 0.096; S -0.037 ± 0.059; K 0.059 ± 0.086; E 0.043 ± 0.07
C28: G -0.183 ± 0.049; L -0.217 ± 0.052; T -0.07 ± 0.067; S -0.064 ± 0.053; N -0.006 ± 0.085; E -0.144 ± 0.062; V -0.151 ± 0.054; D -0.171 ± 0.084; Y -0.06 ± 0.061; F -0.031 ± 0.075; P -0.475 ± 0.08; I -0.276 ± 0.095; A -0.019 ± 0.06; K -0.038 ± 0.075; W -0.16 ± 0.055; Q -0.128 ± 0.08; R -0.071 ± 0.047
N22: L -0.727 ± 0.065; Y -0.277 ± 0.088; E -0.236 ± 0.072; V -0.301 ± 0.061; G -0.318 ± 0.062; R -0.638 ± 0.069; W -0.73 ± 0.11; C -0.532 ± 0.13; H -0.345 ± 0.12; M -0.478 ± 0.073; K -0.831 ± 0.1; T -0.12 ± 0.071; D -0.602 ± 0.089; Q -0.286 ± 0.087; F -0.418 ± 0.09; I -0.492 ± 0.14; P -0.916 ± 0.14; S -0.033 ± 0.06
